We go through 2 molecules from US6579848B1, “Depigmenting activity of agouti signal protein and peptides thereof” (The United States of America as represented by the …, priority 1995, dated 2003).

Common to all, as to format: cell-based, murine
One assay deals with tyrosinase. The experiment in a line: Northern blotting of tyrosinase RNA in melan-a cells. The note with it: for RNA level of tyrosinase: 5 days. On the procedure: (§1) These techniques were performed as described previously (Aroca et al., 1993). Briefly, 2.0 μg of mRNA, isolated using a total RNA isolation kit and mRNA purification kit (Promega, Madison, Wis.), were electrophoresed and then blotted to Sure-Blot nylon membranes (Oncor, Gaithersburg, Md.), hybridized with ^32P-labeled probes, dehybridized and rehybridized with other probes again as necessary. TYRS-J, the probe specific for tyrosinase, was kindly provided by Drs. H. Yamamoto and T. Takeuchi, Sendai, Japan and is described in Yamamoto et al Japan J. Genetics Vol 62:271-274, 1987. pMT4, specific for TRP1, was provided by Dr. S. Shibahara, Sendai, Japan and is described in Shibahara, S. et al Nucleic Acid Res. Vol 14:2413-2427, 1986. TRP2a, specific for TRP2 was provided by Dr. I. Jackson, Edinburgh, Scotland and is described in Jackson, I et al. EMBO Vol 11:527-535, 1992. gp100, specific for silver, was provided by Dr. Y. Kawakami, Bethesda, Md. and is described in Kawakami et al PNAS, Vol. 91, 6458-6462, 1994.
(§2) Recombinant agouti protein was purified from baculovirus system by Dr. Michael Ollmann in Dr. Gregory Barsh's laboratory by methods known in the art. 2×10^6 cells were seeded per 15 cm diameter dish. The medium was changed everyday, and fresh agouti protein and/or αMSH added everyday usually at 10 nM. To examine transcriptional regulation, total RNA was isolated and Northern blotting performed by methods described in Example 1. The A26 probe to the MSH-R was provided by Dr. R. Cone and is described in Mountjoy et al. Science 257:1248-1251, 1992. At the translational level, metabolic labeling was used in conjunction with immunoprecipitation as described in Example 1. Western blotting and enzyme assay was used to examine function.
First, it was determined whether the agouti protein had any effect on tyrosinase expression by Northern blotting. After 24 hours, the cells were harvested, total RNA isolated and hybridized with a probe for tyrosinase and detected by a phosphoimager. The activity of each band was measured by phosphoimager and the % control was corrected using GAPDH as a standard. […] It should be noted that in vivo, pheomelanin is synthesized within 24 hours after agouti RNA is apparent. Longer incubation times were also examined. 10 nM of agouti protein was added for 1, 2 or 4 days.
Total RNA was extracted from cells using an RNeasy total RNA isolation kit (QIAGEN, Catsworth, Calif.), following the manufacturer's instructions. 20 μg of total RNA was denatured, electrophoresed through 1.0% agarose gels, and transferred overnight at 23° C. to SureBlot nylon hybridization membranes (Oncor, Gaithersburg, Md.) in the standard manner. […]

A further assay concerns TRP1. The experiment in a line: Northern blotting of TRP1 RNA in melan-a cells. The note with it: for RNA level of TRP1: 10 nM, 5 days. On the procedure:
as §1, §2
(§3) The effects of agouti protein on expression of TRP1, TRP2, and the MSH receptor were examined.
(§4) Total RNA was extracted from cells using an RNeasy total RNA isolation kit (QIAGEN, Catsworth, Calif.), following the manufacturer's instructions. […]

In a further assay the test system is TRP2. The experiment in a line: Northern blotting of TRP2 RNA in melan-a cells. On the procedure: as §1, §2, §3, §4
Setting [1] is: 24 hours, different concentrations.

As to “α-melanocyte stimulating hormone [MSH, reference compound]”, the “RNA level of tyrosinase” value in the assay on tyrosinase (10 nM) was “almost a twofold increase”. Moreover, in the assay with TRP1, the “RNA level of TRP1” value is “no significant increase”. In addition, the “increase in TRP2 RNA level” value in the assay on TRP2 (10 nM, 5 days) came out at 50%.

B1: agouti protein: Recombinant murine agouti signal protein purified from a baculovirus expression system (protein)
chain: MDVTRLLLATLVSFLCFFTVHSHLALEETLGDDRSLRSDSSMNSLDFSSVSIVALNKKSKKISRKEAEKRKRSSKKKASMKKVARPPPPSPCVATRDSCKPPAPACCDPCASCQCRFFGSACTCRVLNPNC
Take B1: in the assay on tyrosinase (10 nM, 2 or 4 days incubation), the “expression of tyrosinase (RNA)” value is “complete inhibition by day 2”. The “RNA level of tyrosinase” value in the assay with tyrosinase (10 nM) is recorded as “nearly a fivefold decrease”. Also, the “expression of tyrosinase (RNA, % control corrected using GAPDH)” value with tyrosinase (24 hours, 10 nM and 1 nM) is reported as “significant dose dependent decreases”. Besides, in the assay on TRP1, the “RNA level of TRP1” value was “nearly a fivefold decrease”. Besides, the “level of TRP1 RNA” value in the assay with TRP1 (setting [1]) is listed as “reduced, but not to the same extent as tyrosinase RNA”. Moreover, the “RNA level of TRP2” value in the assay with TRP2 (10 nM, 5 days) was “nearly a fivefold decrease”. In addition, the “level of TRP2 RNA” value in the assay on TRP2 (setting [1]) is listed as “reduced, but not to the same extent as tyrosinase RNA”.
